We go through two compounds from patent US20260069728A1, “MULTI-TARGETING COMPOUND AND USE THEREOF” (Chengdu Shetai Medical Technology Co., Ltd., priority 2023, published 2026).

Data set [1] is described as follows: Determination of hydrophilicity/lipophilicity (n-octanol/water distribution coefficient). It is filed as physicochemical. Particulars: HEPES buffer pH=7.4 / n-octanol. The protocol: 10 μL of Purified ^68Ga-SDYD01 was diluted to 500 μL with HEPES buffer (pH=7.4), then 500 μL of n-octanol was added. The mixture was vortexed for 30 min and then centrifuged. Subsequently, 450 μL each of the aqueous and organic phases were taken and centrifuged again. Then, 100 μL each of the aqueous and organic phases were taken, and the radioactivity was measured using a γ counter to calculate the n-octanol/water distribution coefficient (Log Do/w). The measured Log Do/w value for ^68Ga-SDYD01 was −2.54±0.01, and for ^177Lu-SDYD01 was −2.55±0.05.
10 μL of purified ^68Ga-SDYD02 was diluted to 500 μL with HEPES buffer (pH=7.4), then 500 μL of n-octanol was added. […] Then, 100 μL each of the aqueous and organic phases were taken, and the radioactivity was measured using a γ counter to calculate the n-octanol/water distribution coefficient (Log Do/w). The measured Log Do/w value for ^68Ga-SDYD02 was −2.47±0.03, and for ^177Lu-SDYD02 was −2.35±0.02.
10 μL of purified ^68Ga-SDYD05 was diluted to 500 μL with HEPES buffer (pH=7.4), then 500 μL of n-octanol was added. […] Then, 100 μL each of the aqueous and organic phases were taken, and the radioactivity was measured using a γ counter to calculate the n-octanol/water distribution coefficient (Log Do/w). The measured Log Do/w value for ^68Ga-SDYD05 was −2.37±0.02, and for ^177Lu-SDYD05 was −2.46±0.05. […]

Data set [2] is described as follows: Small animal PET imaging and biodistribution study. Type of data set: in vivo, NSG mice. Particulars: NSG, mouse, in vivo, iv, 7.4 MBq, total radioactivity. In a few lines: (§1)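 NSG mice bearing ~150 mm^3 subcutaneous U87 MG tumours received ~7.4 MBq of 68Ga-labelled tracer i.v., with micro-PET/CT static 20-min 3D scans at 30, 60 and 120 min. For biodistribution, mice were euthanised at 30/60/120 min, or 30/60/90 min for SDYD07, SDYD08 and SDYD07-1. Tissue radioactivity was decay-corrected and expressed as SUV and %ID/g.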

Data set [3] concerns subcutaneous xenograft tumors (U87 MG cells). Put plainly: Small animal PET imaging and biodistribution study. It is filed as in vivo, NSG mice. In a few lines: as §1
[4] abbreviates: absolute uptake value in the tumor.

Like-named read-outs stand apart in the source and are kept apart here. *1 amine or outer side, *2 acyl side, *3 side chain or, on linkers, in order; H or OH if unused. Where a SMILES comes first, the peptide text is derived from it. Bridges are numbered along the chain shown (N, C = ends). [ ]: non-standard residue; d: D form. The star is where a group is joined. X1 = N#C[C@@H]1CC(F)(F)CN1C(=O)CNC(=O)c1ccnc2ccc(OCCCN3CCN(*)CC3)cc12; DOTA = O=C(O)CN1CCN(CC(=O)O)CCN(CC(=O)*)CCN(CC(=O)O)CC1; 2Nal = N[C@@H](Cc1ccc2ccccc2c1)C(=O)O; Cit = NC(=O)NCCC[C@H](N)C(=O)O; Suc = O=C(CCC(=O)[*:2])[*:1]; AEEA = NCCOCCOCC(=O)O

For `N#C[C@@H]1CC(F)(F)CN1C(=O)CNC(=O)c1ccnc2ccc(OCCCN3CCN(C(=O)CCC(=O)N[C@@H](CCCCNC(=O)CN4CCN(CC(=O)O)CCN(CC(=O)O)CCN(CC(=O)O)CC4)C(=O)NCCOCCOCC(=O)NCCOCCOCC(=O)N[C@@H](CCCNC(=N)N)C(=O)N[C@@H](CCCNC(=N)N)C(=O)N[C@@H](Cc4ccc5ccccc5c4)C(=O)N[C@H]4CSSC[C@@H](C(=O)N[C@@H](CCCNC(=N)N)C(N)=O)NC(=O)[C@H](CCCNC(N)=O)NC(=O)[C@H](CCCNC(=N)N)NC(=O)[C@H](Cc5ccc(O)cc5)NC(=O)[C@@H]5CCCN5C(=O)[C@H](CCCCN)NC(=O)[C@H](CCCCN)NC(=O)[C@H](CCCNC(N)=O)NC(=O)[C@H](Cc5ccc(O)cc5)NC4=O)CC3)cc12` [^68Ga-SDYD01, metal not drawn] ({X1-Suc}-K(DOTA)[AEEA][AEEA]RR[2Nal]CY[Cit]KKPYR[Cit]CR-NH2; disulfide 7-16), in data set [1], the “n-octanol/water distribution coefficient (Log Do/w)” value is recorded as −2.54±0.01. In addition, in data set [2] (setting [4]), the tissue uptake at 0.5 h was no less than 10 %ID/g and the tissue uptake at 1 h is no less than 10 %ID/g. Moreover, the “radioactive uptake in the tumor sites (in words)” value in data set [3] (mouse, in vivo) is given as “significant radioactive uptake in the tumor sites”.
Take `CCCCCC(=O)N[C@H]1CSCc2cc(CSCCNC(=O)[C@H](CCCCNC(=O)CN3CCN(CC(=O)O)CCN(CC(=O)O)CCN(CC(=O)O)CC3)NC(=O)COCCOCCNC(=O)COCCOCCNC(=O)CCN3C(=O)CC(SCCNC(=O)CCC(=O)NCc4ccc(NC(=O)COCC(=O)N[C@H](Cc5ccccc5)C(=O)N[C@@H](CCC(N)=O)C(=O)N[C@@H](Cc5c[nH]c6ccccc56)C(=O)N[C@@H](C)C(=O)N[C@H](C(=O)NCC(=O)N[C@@H](Cc5c[nH]cn5)C(=O)NC(CC(C)C)CC(C)C)C(C)C)cc4)C3=O)cc(c2)CSC[C@@H](C(=O)O)NC(=O)[C@H](Cc2ccccc2)NC(=O)[C@H](CCC(N)=O)NC(=O)C([C@@H](C)O)NC(=O)[C@@H]2CCCN2C(=O)[C@@H]2CCCN2C1=O` (some centres unmarked) [^68Ga-SDYD04, metal not drawn]: the “n-octanol/water distribution coefficient (Log Do/w)” value in data set [1] is given as −1.63±0.07. Further, in data set [2] (30 minutes post-injection, read-out: absolute uptake value in the tumor), the tissue uptake at 0.5 h was no less than 10 %ID/g. The tissue uptake at 1 h in data set [2] (60 minutes post-injection, read-out: absolute uptake value in the tumor) was no less than 10 %ID/g. Also, the “radioactive uptake in the tumor sites (in words)” value in data set [3] (tail vein injection, U87 MG tumor-bearing NSG mice) was “significant radioactive uptake in the tumor sites”.
